B1: SAT2 (parent)
chain: IIKKVAEVALDKGCSQFRLAVLDW
B2: CPN1 (parent)
chain: RGVRRTASTPTPDDKLFQKLAKVY

Variants of: B1
Experiment: protein stability index of a GFP-peptide fusion (GPS, HEK-293T) (PSI 1-6); higher = more stable
Conditions: c terminus: a fixed tail appended
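Note: lentivirally expressed fusions sorted by FACS into six bins by GFP to DsRed ratio, PSI derived from sequencing read proportions per bin multiplied by bin number.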

Protein stability index of substitutions, site by site:
I2: P 1.03, M 1.32, K 2.16, D 1.74, G 1.48, H 1.33, F 3.61, S 1.98, N 2.16, W 1.81
V8: H 2.58, W 2.76, N 2.01, M 2.59, E 1.2, K 1.6, C 1.99, P 1.7, Q 2.94
V21: K 1.87, W 3.21, Q 1.04, G 3.79, L 4.52, T 1.78, H 2.52, N 1.51
Q16: F 4.68, E 3.74, W 1.51
S15: W 1.79, Q 1.56, L 3.77, Y 3.27, D 2.74
G13: C 2.45, D 2.79, I 2.37
K3: P 1.86, R 2.37
F17: M 4.35, K 2.69, D 3.24, S 1.03, T 3.18, P 3.25
L22: T 3.66, D 1.23, F 1.86, K 2, W 4.19, P 2.5
A20: P 2.01, T 2.13
V5: G 3.27, F 3.49, N 3.44, Y 1.04, D 1.52, A 3.31
A9: M 2.39, F 2.31, I 2.87, N 2.8
D23: M 2.98, H 3.77, I 3.25, F 1.82, Y 2.22, C 3.04, V 2.16
D11: P 4.36, Q 2.15, F 3.5, Y 2.01, L 1.19
I1: Q 2.23, D 2.44, T 1.86, S 2.28, K 2.02, N 1.38, H 2.14
K4: Q 2.45, G 1.54, Y 2.95, W 3.9, P 1.31, E 3.05
K12: M 2.73, C 3.59, W 4.21, G 3.51
C14: S 2.97, Y 2.62, D 2.61, N 4.56
A6: Q 1.15, E 2.19, N 2.71
E7: N 2.35, T 2.79, L 2.75, I 1.52, P 2.75, M 1.78, Y 2.64
W24: P 1.65, N 2.22, E 2.23, H 1.04, R 1.28, T 2.24, D 1.37, S 3.1, M 2.37
L10: C 3.52, D 1.75, N 1.17, H 1.99, T 3.02, S 1.05, M 4.14
L19: V 3.77, N 2.69, H 3.62, A 1.61, R 2.5, Y 2.61
R18: Y 3.6, P 2.17, S 3.36, M 1.8, L 2.39

Variants of: B2
Experiment: as above
Conditions: c terminus: a fixed tail appended

Protein stability index of substitutions, site by site:
V3: Y 2.27, C 2, S 1.93, W 2.66, P 2.35, H 2.13, D 2.58, K 1.62, L 2.24, N 2.2, F 2.24, E 2.24, T 2.89, M 1.84, A 2.16, G 2.12, Q 1.88, I 2.48, R 2.84
R4: W 2.02, I 2.56, V 2.35, Y 1.54, A 2.01, H 2.17, G 2.57, N 1.95, D 3.69, E 2.16, Q 1.76, M 2.26, L 1.92, S 2.76, C 3.17, K 1.51
A7: N 2.54, E 2.05, C 1.57, R 1.71, M 1.62, W 2.59, L 1.17, V 2.75, H 1.41, S 1.97, Y 2, P 1.85, F 1.25, D 2.05, T 2.07, Q 2.37, G 2.38
T11: S 1.86, V 1.67, N 2.23, I 1.71, A 2.29, G 2.54, M 2.03, H 2.04, K 2.56, Q 2.29, R 1.82, L 1.52, D 2.26, F 1.92, W 1.92, C 1.83, Y 2.25, E 2.1
R5: H 2.35, W 2.2, G 1.7, M 2.51, A 3.41, N 2.3, S 2.23, Y 1.89, C 3.3, E 2.57, I 2.33, T 2.94, D 2.69, Q 2.23, L 2.07, K 1.85, F 1.57, P 2.79, V 1.87
P10: C 2.07, A 2.13, E 2.81, H 1.34, R 1.74, I 1.48, T 1.75, V 1.79, S 2.09, D 2.49, Y 1.79, N 2.06, M 1.89, L 1.02, Q 1.78, K 1.8, W 1.36, F 2.19, G 2.27
S8: Q 2.18, W 3.14, G 1.1, N 2.1, A 2, M 1.44, H 1.82, K 2.85, Y 3, F 1.7, L 1.76, T 1.6, E 1.63, I 1.57, D 2.19
R1: K 1.89, P 2.27, T 1.49, H 2.58, L 2.88, W 1.02, I 1.42, F 1.92, Q 2.42, D 2.27, C 1.4, M 1.93, A 1.4, S 2.85, N 2.42, Y 2.93, V 2.34
T9: I 1.68, K 2.57, L 1.27, N 1.54, A 2.07, H 2.27, G 3.11, Y 1.52, S 1.94, V 1.97, M 1.45, C 2.57, F 2.3, W 2.02, P 3, R 1.3, Q 1.84
T6: F 2.07, W 2.02, G 1.74, M 2.02, V 2.56, Y 1.59, D 2.93, N 1.56, H 1.49, P 1.23, C 1.52, E 2.12, I 1.67, R 1.99, Q 2, L 1.73, S 1.97, K 1.61
G2: H 1.87, C 2.22, S 3.13, V 2.84, E 2.35, Y 1.64, L 1.24, T 2.23, P 2.19, A 2.52, D 2.26, F 1.51, I 1.76, M 1.79, K 2.38, N 3.13, R 1.66, Q 1.94
P12: A 2.06, G 2.4, H 1.94, F 2.38, D 2.37, E 3.13, C 1.65

From the supplement of paper PMC10567573
